According to FireProtDB (doi:10.1111/febs.13659):

B1: Cytosolic beta-glucosidase, O61594 (parent)
chain: MKLLVVLSLVAVACNASIVRQQRRFPDDFLFGTATASYQIEGAWDEDGKGENIWDYMVHNTPEVIRDLSNGDIAADSYHNYKRDVEMMRELGLDAYRFSLSWARILPTGMANEVNPAGIAFYNNYIDEMLKYNITPLITLYHWDLPQKLQELGGFANPLISDWFEDYARVVFENFGDRVKMFITFNEPREICFEGYGSATKAPILNATAMGAYLCAKNLVTAHAKAYYLYDREFRPVQGGQCGITISVNWFGPATPTPEDEMAAELRRQGEWGIYAHPIFSAEGGFPKELSDKIAEKSAQQGYPWSRLPEFTEEEKAFVRGTSDLIGVNHYTAFLVSATERKGPYPVPSLLDDVDTGSWADDSWLKSASAWLTLAPNSIHTALTHLNNLYNKPVFYITENGWSTDESRENSLIDDDRIQYYRASMESLLNCLDDGINLKGYMAWSLMDNFEWMEGYIERFGLYEVDFSDPARTRTPRKAAFVYKHIIKHRVVDYEYEPETMVMTIDEGH

Variants of: B1
Conditions: Spodoptera frugiperda, pH 6, Thermal, Potassium phosphate 10mM, transition: 2, structure 5CG0, whole UniProt chain shown
[1] = Differential Scanning Fluorimetry

Row | Variant | Tm [1] [°C] | change of melting temperature, mutant - wild type (higher = more stable) [1] [°C] | Tm (CD) [°C] | change of melting temperature, mutant - wild type (higher = more stable) (CD) [°C] | ddG of mutation (higher = less stable) (CD) [kJ/mol] | unfolding enthalpy (calorimetric) (CD) [kJ/mol] | unfolding free energy (CD) [kJ/mol]
1 | S358A | 42 | -3 | – | – | – | – | –
2 | E265A | 44.9 | -0.1 | 44.9 | -1.1 | -1.8 | 214 | 98.9
3 | N391A | 46 | 1 | 44.4 | -1.6 | – | – | –
4 | D260A | 40.8 | -4.2 | – | – | – | – | –
5 | L350A | 43.8 | -1.2 | 43.5 | -2.5 | 2.93 | 257 | 94.2
6 | K366A | 41 | -4 | 41.5 | -4.5 | 5.23 | 312 | 91.9
7 | A263F | 40.6 | -4.4 | 39.6 | -6.4 | 1.8 | 185 | 95.3
8 | L100A | 47.6 | 2.6 | 46.4 | 0.4 | -3.39 | 222 | 100
9 | N249A | 39 | -6 | 38.5 | -7.5 | 3.93 | 202 | 93.2
10 | L335A | 40 | -5 | 38.5 | -7.5 | 3.51 | 231 | 93.6
11 | Y420A | 37.2 | -7.8 | 37 | -9 | 5.94 | 200 | 91.2
12 | E261A | 46.2 | 1.2 | – | – | – | – | –
13 | Y390A | 45.1 | 0.1 | 43 | -3 | 1.42 | 303 | 95.7
14 | L389A | 46.6 | 1.6 | 46.4 | 0.4 | -2.8 | 339 | 99.9
15 | V336F | 34 | -11 | 30 | -16 | 8.95 | 216 | 88.2
16 | S247A | 45.3 | 0.3 | – | – | – | – | –
17 | F251A | 42.4 | -2.6 | 42.2 | -3.8 | 2.8 | 219 | 94.3
18 | F334A | 42.5 | -2.5 | 42.9 | -3.1 | 4.64 | 303 | 92.5
19 | S337F | 40.4 | -4.58 | – | – | – | – | –
20 | M262F | 45 | 0 | 45.7 | -0.3 | -2.22 | 384 | 99.3
